Patent US20240270826A1 (NATIONAL RESEARCH COUNCIL OF CANADA, published 2024)

Columns and labels:
[1] = biological target: Human SARS-CoV-2_Wuhan S (SmT1) (SARS-CoV-2 (Wuhan), UniProt P0DTC2 14-1208); assay: tandem SPR, immobilized S, orientation 1: VHH alone
[2] = biological target: SARS-CoV-2 spike protein S on live virus, Wuhan (strain SARS-CoV-2/Canada/VIDO-01/2020) (SARS-CoV-2 (Wuhan), UniProt P0DTC2 14-1273); assay: cell-based or functional assay
[3] = biological target: Human SARS-CoV-2_Wuhan S (SmT1) (SARS-CoV-2 (Wuhan), UniProt P0DTC2 14-1208); assay: flow cytometry SVNA, VHH-Fc vs biotin-S binding to Vero E6 ACE2

B1: NRCoV2-06 VHH (VHH)
VHH: EVQLVQSGGGLVQAGESLRLSCAASVSTFSSYAMGWYRQAPGKQRELVASIGFVGATYYIDSVKGRFTISRDNAKKTAYLQMNDLKPDDTAVYYCNARHYGGSEYWGQGTQVTVSS
End 1st inj (RU) [1]: 38.5 RU

B2: NRCoV2-12 VHH-Fc (Fc fusion)
chain: EVQLQQSGGGLVQAGGSLRLSCAASGRTFRNYVMGWFRQAPQAPGKDHEFVAAISWGGTEIYYADSVKGRFTISRDNAKNTVYLQMNSLKPEDTAVYYCAADRGLSYYYTRTTEYNYWGQGTQVTVSS
notes: bivalent VHH-Fc
LVNA IC50 [2]: 2.82 nM
IC50 [3]: 7.3 nM
IC99 [3]: 840 nM
Imax % [3]: 90%

B3: NRCoV2-SR02 VHH (VHH)
VHH: EVQLVDSGGGLVQAGGSLRLSCTASEFTLNYYSIGWFRQSPGKEREGVSCIRYSGGGIDYADSVKGRFTISRDNAKNTVYLTMNSLKPEDTAVYYCAADRLYSRACPTAGGRNYWGQGTQVTVSS
End 1st inj (RU) [1]: 10.3 RU

B4: NRCoV2-SR16 VHH (VHH)
VHH: QVQLVQSAGGLVQAGGSLRLSCVVSGTTFSRYHMGWHRQAPGKQRDFVAGISTSGAVTYADSAKGRFTISRDNAKNTVYLEMNSLKLEDTALYYCNTGGWDYRSSTFIMGLNWGQGTQVTVSS
End 1st inj (RU) [1]: 37.4 RU

B5: NRCoV2-S2F3 VHH (VHH)
VHH: EVQLVQSGGGLVQAGGSLRLSCATSVRILSVPAMGWYRQAPGKEREMVAVITSGGSTNYADSVKGRFTISRDNAKNTVYLQMNSLKLEDTAVYQCNLRDILSQPFWGQGTQVTVSS
End 1st inj (RU) [1]: 50 RU

B6: NRCoV2-SR01 VHH (VHH)
VHH: EVQLVQSGGGSVQAGGSLRLSCVASGFTFDNYAIGWFRQAPGKEREGVSCISGNGGVTIYADSVKGRFTISRDNAKNLVYLQMNSLKPEDTAVYYCAATGIRSTWSVYGCSRLAGPYDYWGQGTQVTVSS
End 1st inj (RU) [1]: 39.4 RU

B7: NRCoV2-S2G3 VHH (VHH)
VHH: QVQLVQSGGGSVQAGGSLRLSCAASGSTFGIFLMGWRRQAPGKQRELVAHITSGGATNYADSVKGRFTISRDNAKNTVYLQMNSLEPEDTAVYYCYTTKRDDASVYWGQGTQVTVSS
End 1st inj (RU) [1]: 59 RU

B8: NRCoV2-03 VHH (VHH)
VHH: EVQLVSSGGGLVQAGGSLRLSCTASGITFSYYAMGWYRQAPGQPRELVASMSNMDSTIYADSVKGRFTISRDNAKTTIYLQMNNLKPEDTAVYFCNIYGPTYSTRRNEYWGQGTQVTVSS
End 1st inj (RU) [1]: 18.1 RU

B9: NRCoV2-04 VHH (VHH)
VHH: AVQLVDSGGGLVQPGGSLRLSCAASGSPFSNVVMAWYRQAPGKQRERVAFISGGGIADYIMSVKGRFTISRDNAKNTVYLQMNSLKPEDTAVYYCWSSYESTWGQGTQVTVSS
End 1st inj (RU) [1]: 41.4 RU

B10: NRCoV2-05 VHH-Fc (Fc fusion)
chain: EVKLVQSGGGLVQPGGSLRLSCAASGFIFSNYAMNWVRQAPGKGLEWVSGINSGGGDTRYADSVKGRFTVSRDNAKNTLYLQMNSLKPEDTGVYYCSKGPVSSYYGSGYDYRGQGTQVTVSS
notes: bivalent VHH-Fc
LVNA IC50 [2]: 0.0008 nM
IC50 [3]: 6.7 nM
IC99 [3]: 37 nM
Imax % [3]: 95%

B11: NRCoV2-05 VHH (VHH)
VHH: B10 chain
End 1st inj (RU) [1]: 36.9 RU

B12: NRCoV2-SR13 VHH (VHH)
VHH: EVQLVESGGGLVTTGGSLRLSCATSGSRFGSKHMAWYRQAPGKQRDLVAAISSGGSTHYGSSVKGRFTISRDNAKSTVYLQMNSLNPEDTAVFYCNMGGWDYRSNTYIPGSRSDYWGQGTQVTVSS
End 1st inj (RU) [1]: 36.9 RU

B13: NRCoV2-14 VHH-Fc (Fc fusion)
chain: EVQLVSSGGGLVQAGGSLRLSCEASGTTFSHYAVGWYRQAPGKQREWVASISVFGSTTYGGSVAGRFTISRDNDKNTVDLQMNSLKPEDTAVYYCHAVNADIGGDYWGQGTQVTVSS
notes: bivalent VHH-Fc
LVNA IC50 [2]: 3.1 nM
IC50 [3]: 9.9 nM
IC99 [3]: 160 nM
Imax % [3]: 83%

B14: NRCoV2-14 VHH (VHH)
VHH: B13 chain
End 1st inj (RU) [1]: 26.9 RU

B15: NRCoV2-MRed05 VHH-Fc (Fc fusion)
chain: EVQLVESGGGLVQPGGSLRLSCAASGFTLDYYAIGWFRQAPGKEREGVSCISSSDGSTLYADSVKGRFTISRDNAKNTVYLQMNSLKPEDTAVYYCATGPQAYYSGSYYFQCPQAGMDYWGKGTQVTVSS
notes: bivalent VHH-Fc
LVNA IC50 [2]: 0.17 nM
IC50 [3]: 6.1 nM
IC99 [3]: 36.3 nM
Imax % [3]: 95%

B16: NRCoV2-MRed04 VHH-Fc (Fc fusion)
chain: EVQLVESGGGLVQPGRSLRLSCAASGNSFSISTMGWFRQAPGKERELVASIWSDTTTSYADSVKGRFTISTDNTRTKVYLQMSSLNPEDTAVYYCAADRGFVVRGQYDYWGQGTQVTVSS
notes: bivalent VHH-Fc
LVNA IC50 [2]: 9.61 nM
IC50 [3]: 4.6 nM
IC99 [3]: 262 nM
Imax % [3]: 73%

B17: NRCoV2-S2G4 VHH (VHH)
VHH: QVQLVQSGGGLVQAGGSLTLSCAPSGSTFSGYATNWYRQAPGKQRELVATISSDGDKNYADSVKGRFTISRDNAKNTVYLQMNSLKPEDTAVYYCNKHWWTGDWWGQGTQVTVSS
End 1st inj (RU) [1]: 21.3 RU

B18: NRCoV2-11 VHH (VHH)
VHH: EVQLVSSGGGLVQPGGSLRLSCAASGSSLDSYSVSWFRQAPGKEREWISFISRYYSSTYYTDSVKGRFTTSRDGDQKTVHLQMNSLKPEDTAVYYCAARSRDFSSPFSATDTYTSWGQGTQVTVSS
End 1st inj (RU) [1]: 21.8 RU

B19: NRCoV2-18 VHH-Fc (Fc fusion)
chain: EVQLVESGGGLVQAGGSLRLSCVASGITISGYNMAWWRQTRGKQTERVAFINSGGSTTYSDSVKGRFTISRDNGKNTAYLQMNSLNAEDTADYFCSLHTSHDYWGQGTQVTVSS
notes: bivalent VHH-Fc
LVNA IC50 [2]: 6.4 nM
IC50 [3]: 12 nM
IC99 [3]: 680 nM
Imax % [3]: 90%

B20: NRCoV2-18 VHH (VHH)
VHH: B19 chain
End 1st inj (RU) [1]: 12.6 RU

B21: NRCoV2-1d VHH (VHH)
VHH: EVQLVESGGGSVQPGGSLRLSCAASGSTLDYYAIGWFRQAPGKEREWVSSVSSSDGNTLYADSVKGRFTISRDNAKNTVYLQMNSLKAEDTAVYVCAADYSMRPFAVGRWHRDYEYWGQGTQVTVSS
End 1st inj (RU) [1]: 26.3 RU

B22: NRCoV2-20 VHH-Fc (Fc fusion)
chain: EVQLQQSGGGLVQPGGSLRLSCAASGRTFSNYVVGWFRQAPQAPGKDHEFVAVISGSDTETYYADSVKGRFTISRDNAKNTVYLQMNSLKPEDTAVYYCAADRGMSYYYTRATEYYYWGQGTQVTVSS
notes: bivalent VHH-Fc
LVNA IC50 [2]: 11.2 nM
IC50 [3]: 8.7 nM
IC99 [3]: 70.3 nM
Imax % [3]: 66%

B23: NRCoV2-20 VHH (VHH)
VHH: B22 chain
End 1st inj (RU) [1]: 27.1 RU

B24: NRCoV2-17 VHH-Fc (Fc fusion)
chain: EVQLQQSGGGLVQTGGSLRLSCAAAGSPFSQLAMSWYRQISGKERAWVASISPTGNRSYSKIAKGRFTISRDNAKNTVTLQMTSLKPEDTAAYICQAANVNGGDYWGQGTQVTVSS
notes: bivalent VHH-Fc
LVNA IC50 [2]: 2.82 nM
IC50 [3]: 8.6 nM
IC99 [3]: 101 nM
Imax % [3]: 88%

B25: NRCoV2-17 VHH (VHH)
VHH: B24 chain
End 1st inj (RU) [1]: 16.7 RU

B26: NRCoV2-SR04 VHH (VHH)
VHH: QVQLVESGGGLVQAGGSLRLSCAASGRTFSSHTVGWYRQAPGKQRDLVAAISMGGNTNYADYADSVKGRFTISRDNAKNTLYLQMNSLKPEDTAVYYCNTAALVGNRLLPMATITWGQGTQVTVSS
End 1st inj (RU) [1]: 10.9 RU

B27: NRCoV2-15 VHH-Fc (Fc fusion)
chain: EVQLVSSGGGLVEAGGSLRLSCIASGSTSGRNTMGWFRQAPGKQREWVAIVSTSGATNYAGSVKGRFTLSRDNAKNAVYLQMNNLKPEDTAVYYCYAAYGGGGDYWGQGTQVTVSS
notes: bivalent VHH-Fc
LVNA IC50 [2]: 0.73 nM
IC50 [3]: 8.1 nM
IC99 [3]: 71.5 nM
Imax % [3]: 95%

B28: NRCoV2-15 VHH (VHH)
VHH: B27 chain
End 1st inj (RU) [1]: 10.1 RU

B29: NRCoV2-10 VHH-Fc (Fc fusion)
chain: QLQLQESGGGLVQPGGSLTLSCAASGNTFSRSNMHWYRQAPGAQREWVAAISSRGISTYAYSAKGRFTISRDNAKNTVSLQMNSLKPEDTAVYYCYAADDLGDYWGQGTQVTVSS
notes: bivalent VHH-Fc
LVNA IC50 [2]: 1.28 nM
IC50 [3]: 7.7 nM
IC99 [3]: 77.3 nM
Imax % [3]: 91%

B30: NRCoV2-10 VHH (VHH)
VHH: B29 chain
End 1st inj (RU) [1]: 9.6 RU
